Laboratory results as given in patent US20230265179A1 (TWIST BIOSCIENCE, published 2023).
Changes are numbered by the printed parent chain.

B1: CD40L-162 (antibody, V domains shown)
VH: EVQLLESGGGLVQPGGSLRLSCAASGGYNFRDYMHWVRQAPGKGLEWVAEIRNKANNHATKYADSVKGRFTISRDNSKNTLYLQMNSLRAEDTAVYYCAKNLGQGFDYWGQGTLVTVSS
VL: DIQMTQSPSSLSASVGDRVTITCRTSQDISNYLNWYQQKPGKAPKLLIYATSNLASGVPSRFSGSGSGTDFTLTISSLQPEDFATYYCQQSYSSAPMFGQGTKVEIK
notes: IgG2
B2: CD40L-165 (antibody, V domains shown)
VH: EVQLLESGGGLVQPGGSLRLSCAASGFDFSDYEMSWVRQAPGKGLEWVSSITSEGGSTYYADSVKGRFTISRDNSKNTLYLQMNSLRAEDTAVYYCAKPDVLFDYWGQGTLVTVSS
VL: B1 VL with A50G, T51A, N53T, A55Q, S93D, S94N, A95P, P96L, M97T
notes: IgG2
B3: CD40L-203 (antibody, V domains shown)
VH: B1 VH
VL: DIQMTQSPSSLSASVGDRVTITCRASQSISSYVNWYQQKPGKAPKLLIYANTNGPSGVPSRFSGSGSGTDFTLTISSLQPEDFATYYCQSYDNSVRGSRVFGQGTKVEIK
notes: IgG2
B4: CD40L-180 (antibody, V domains shown)
VH: B2 VH
VL: DIQMTQSPSSLSASVGDRVTITCRASQSILSYLNWYQQKPGKAPKLLIYGASSLESGVPSRFSGSGSGTDFTLTISSLQPEDFATYYCQQTYDTPLTFGQGTKVEIK
notes: IgG2
B5: CD40L-175 (antibody, V domains shown)
VH: B2 VH with V101K, L102D
VL: B4 VL with S28T, L30G, S31D, G50D, S53N, E55Q, T91S, D93E, T94L
notes: IgG2
B6: CD40L-164 (antibody, V domains shown)
VH: B2 VH
VL: DIQMTQSPSSLSASVGDRVTITCRASSSVSYMHWYQQKPGKAPKLLIYAASDLESGVPSRFSGSGSGTDFTLTISSLQPEDFATYYCSQSTHVPTFGQGTKVEIK
notes: IgG2
B7: CD40L-202 (antibody, V domains shown)
VH: B2 VH with D28T, S30A, D31S, S35T
VL: DIQMTQSPSSLSASVGDRVTITCRASQDIYQNLDWYQQKPGKAPKLLIYQDFKRPSGVPSRFSGSGSGTDFTLTISSLQPEDFATYYCQAWDNGAAVFGQGTKVEIK
notes: IgG2
B8: CD40L-185 (antibody, V domains shown)
VH: B2 VH with V101Q, L102F, F103L
VL: DIQMTQSPSSLSASVGDRVTITCRASQTIERRLNWYQQKPGKAPKLLIYGTTSLESGVPSRFSGSGSGTDFTLTISSLQPEDFATYYCHHWHHNPTHHETNVFGQGTKVEIK
notes: IgG2
B9: CD40L-168 (antibody, V domains shown)
VH: B2 VH
VL: DIQMTQSPSSLSASVGDRVTITCSGDNLGDKYVHWYQQKPGKAPKLLIYGKNIRPSGVPSRFSGSGSGTDFTLTISSLQPEDFATYYCQSGSSSANAVFGQGTKVEIK
notes: IgG2
B10: CD40L-171 (antibody, V domains shown)
VH: B2 VH with V101Q, L102F
VL: DIQMTQSPSSLSASVGDRVTITCRASSSVSYMHWYQQKPGKAPKLLIYQNDKRPSGVPSRFSGSGSGTDFTLTISSLQPEDFATYYCQQHYSPSHTFGQGTKVEIK
notes: IgG2
B11: CD40L-201 (antibody, V domains shown)
VH: B2 VH with D28T, S30A, D31S, S35T
VL: DIQMTQSPSSLSASVGDRVTITCSGDNLRGYYASWYQQKPGKAPKLLIYGTSDLQSGVPSRFSGSGSGTDFTLTISSLQPEDFATYYCQAWDTNTVIFGQGTKVEIK
notes: IgG2
B12: CD40L-169 (antibody, V domains shown)
VH: B2 VH
VL: DIQMTQSPSSLSASVGDRVTITCSGDKLGDKYAYWYQQKPGKAPKLLIYFTSTLAAGVPSRFSGSGSGTDFTLTISSLQPEDFATYYCQQSYSSAPTFGQGTKVEIK
notes: IgG2
B13: CD40L-189 (antibody, V domains shown)
VH: B2 VH with V101K, L102T
VL: DIQMTQSPSSLSASVGDRVTITCSGDTLGGKYAWWYQQKPGKAPKLLIYDNTNRPSGVPSRFSGSGSGTDFTLTISSLQPEDFATYYCQAWDNSAVIFGQGTKVEIK
notes: IgG2
B14: CD40L-172 (antibody, V domains shown)
VH: B2 VH
VL: DIQMTQSPSSLSASVGDRVTITCKASQHVITHVTWYQQKPGKAPKLLIYGTSDLQSGVPSRFSGSGSGTDFTLTISSLQPEDFATYYCQQSNSWPYTFGQGTKVEIK
notes: IgG2
B15: CD40L-195 (antibody, V domains shown)
VH: B2 VH with D100G, V101R
VL: DIQMTQSPSSLSASVGDRVTITCSGDNIGSIYASWYQQKPGKAPKLLIYQNDKRPSGVPSRFSGSGSGTDFTLTISSLQPEDFATYYCQQGYNSNDVDNVFGQGTKVEIK
notes: IgG2
B16: CD40L-194 (antibody, V domains shown)
VH: B2 VH with D28T, S30E, Y32T, S35D
VL: DIQMTQSPSSLSASVGDRVTITCRASQNINYYLNWYQQKPGKAPKLLIYQNDKRPSGVPSRFSGSGSGTDFTLTISSLQPEDFATYYCQQSYENPLTFGQGTKVEIK
notes: IgG2
B17: CD40L-178 (antibody, V domains shown)
VH: B2 VH with D28T, S30E, E33Q, S35G, D100G, V101R, L102D
VL: DIQMTQSPSSLSASVGDRVTITCRASQPIVRNLRWYQQKPGKAPKLLIYGASSLESGVPSRFSGSGSGTDFTLTISSLQPEDFATYYCLQNVANPATFGQGTKVEIK
notes: IgG2
B18: CD40L-179 (antibody, V domains shown)
VH: B2 VH
VL: DIQMTQSPSSLSASVGDRVTITCRASQSILSYLNWYQQKPGKAPKLLIYGTSKLASGVPSRFSGSGSGTDFTLTISSLQPEDFATYYCQSYDNDFYGTVFGQGTKVEIK
notes: IgG2
B19: CD40L-177 (antibody, V domains shown)
VH: B2 VH with D28T, S30A, D31S, S35T
VL: DIQMTQSPSSLSASVGDRVTITCRASQDVSSGVAWYQQKPGKAPKLLIYDASNLQSGVPSRFSGSGSGTDFTLTISSLQPEDFATYYCSQSTRVPPTFGQGTKVEIK
notes: IgG2
B20: CD40L-174 (antibody, V domains shown)
VH: B2 VH with D100G, V101R
VL: DIQMTQSPSSLSASVGDRVTITCRASESVEYHGTSLMHWYQQKPGKAPKLLIYGRNKRPSGVPSRFSGSGSGTDFTLTISSLQPEDFATYYCQAWDRDTGVFGQGTKVEIK
notes: IgG2
B21: CD40L-186 (antibody, V domains shown)
VH: B2 VH
VL: DIQMTQSPSSLSASVGDRVTITCRASQGVRTSLAWYQQKPGKAPKLLIYENNNRPSGVPSRFSGSGSGTDFTLTISSLQPEDFATYYCSQSTHVPPTFGQGTKVEIK
notes: IgG2
B22: CD40L-187 (antibody, V domains shown)
VH: B2 VH with D100G, V101K, L102N
VL: DIQMTQSPSSLSASVGDRVTITCRASSSVSYMHWYQQKPGKAPKLLIYHTSRLQSGVPSRFSGSGSGTDFTLTISSLQPEDFATYYCSAFTHNSDVFGQGTKVEIK
notes: IgG2
B23: CD40L-197 (antibody, V domains shown)
VH: B2 VH with D100G, V101R, L102D
VL: DIQMTQSPSSLSASVGDRVTITCRTSQDIGNYLNWYQQKPGKAPKLLIYYDVNRPSGVPSRFSGSGSGTDFTLTISSLQPEDFATYYCQPSFYFPYTFGQGTKVEIK
notes: IgG2
B24: CD40L-191 (antibody, V domains shown)
VH: B2 VH
VL: B12 VL with D26N, Y34S, F50D, T53K, L54V, A56S, S93E, S94T, A95P, P96L
notes: IgG2
B25: CD40L-167 (antibody, V domains shown)
VH: EVQLLESGGGLVQPGGSLRLSCAASGGYNFRDYMHWVRQAPGKGLEWVSSISNSGGSTYYADSVKGRFTISRDNSKNTLYLQMNSLRAEDTAVYYCAKNLGQGFDYWGQGTLVTVSS
VL: DIQMTQSPSSLSASVGDRVTITCRASESVEYHGTSLMHWYQQKPGKAPKLLIYGTSNLESGVPSRFSGSGSGTDFTLTISSLQPEDFATYYCQQVVWRPFTFGQGTKVEIK
notes: IgG2
B26: CD40L-173 (antibody, V domains shown)
VH: B25 VH with S49A, S50T, N53G, S54G, G56I, S57N, A61P, N99D
VL: DIQMTQSPSSLSASVGDRVTITCQSSQSVYSNNELSWYQQKPGKAPKLLIYGRNKRPSGVPSRFSGSGSGTDFTLTISSLQPEDFATYYCSQGTHVPPTFGQGTKVEIK
notes: IgG2
B27: CD40L-183 (antibody, V domains shown)
VH: B25 VH with S52V, N53S, S57L, Y59L, N99D
VL: DIQMTQSPSSLSASVGDRVTITCTGDKLAEKYVSWYQQKPGKAPKLLIYQNDKRPSGVPSRFSGSGSGTDFTLTISSLQPEDFATYYCQQSYSRPYTFGQGTKVEIK
notes: IgG2

Each binder was assayed against T1, CD40L over-expressed on Expi293 cells (UniProt P29965 1-261, limits assumed) (assay: flow cytometry, 100 nM antibody, CD40L-Expi293 vs parent Expi293 cells;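 note: ratio is the mean fluorescence intensity on CD40L-overexpressing Expi293 cells divided by the mean fluorescence intensity on parental Expi293 cells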).
T1 construct: whole, on cells; also called cytokine over-expressing Expi293 cells
T1 sequence (looked up): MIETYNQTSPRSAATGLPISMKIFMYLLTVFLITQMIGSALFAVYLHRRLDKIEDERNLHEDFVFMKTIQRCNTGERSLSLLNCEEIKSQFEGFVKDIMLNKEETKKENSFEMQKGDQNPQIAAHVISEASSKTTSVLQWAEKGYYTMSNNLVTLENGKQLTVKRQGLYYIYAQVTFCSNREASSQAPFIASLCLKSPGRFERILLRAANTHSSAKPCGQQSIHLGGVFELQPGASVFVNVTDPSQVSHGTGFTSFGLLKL
Description: All incubations and washes were in buffer containing PBS+1% BSA. MFI Ratio is defined by the mean fluorescence intensity (MFI) of the cytokine over-expressing Expi293 cell over the Expi293 parent cell. […] EC50 was calculated in GraphPad Prism.

Compared with B1, B2 is higher in “100 nM FACS (MFI Ratio)” value: 0.3 ratio for the first, 0.5 ratio for the second.

Going from B3 to B4, the “100 nM FACS (MFI Ratio)” value falls from 6.7 ratio to 4.3 ratio.

B5 and B6 are the same in “100 nM FACS (MFI Ratio)” value: 0.4 ratio for the first, 0.4 ratio for the second.

Compared with B7, B8 is lower in “100 nM FACS (MFI Ratio)” value: 14.2 ratio for the first, 4.5 ratio for the second.

Going from B9 to B10, the “100 nM FACS (MFI Ratio)” value rises from 0.2 ratio to 0.4 ratio.

Compared with B11, B12 is lower in “100 nM FACS (MFI Ratio)” value: 6.9 ratio for the first, 0.4 ratio for the second.

Going from B13 to B14, the “100 nM FACS (MFI Ratio)” value falls from 4.7 ratio to 0.5 ratio.

Compared with B15, B16 is lower in “100 nM FACS (MFI Ratio)” value: 16.8 ratio for the first, 7.3 ratio for the second.

Going from B17 to B18, the “100 nM FACS (MFI Ratio)” value falls from 6.4 ratio to 3.1 ratio.

Compared with B19, B20 is lower in “100 nM FACS (MFI Ratio)” value: 8.9 ratio for the first, 0.4 ratio for the second.

First: B21
Second: B22
The “100 nM FACS (MFI Ratio)” value of the first is higher: 2.7 ratio for the first, 2.3 ratio for the second.

Going from B23 to B24, the “100 nM FACS (MFI Ratio)” value rises from 3.6 ratio to 9.7 ratio.

Going from B25 to B26, the “100 nM FACS (MFI Ratio)” value falls from 1.4 ratio to 0.4 ratio.

For B27, the “100 nM FACS (MFI Ratio)” value was 3.6 ratio.
